{"source": "paper PMC11995519", "about": "“Structural insights into the human NuA4/TIP60 acetyltransferase and chromatin remodeling complex” (Science (New York, N.Y.), 2024)", "binders": {"B1": {"name": "tagged truncation of EP400 containing just the C terminus after the ATPase domain (amino acid 2188 to 3159) (domain or fragment, human, UniProt Q96L91 2188-3159, looked up)", "chain": "AVMTAVRAWEFWNLKTLQEREARLRLEQEEAELLTYTREDAYSMEYVYEDVDGQTEVMPLWTPPTPPQDDSDIYLDSVMCLMYEATPIPEAKLPPVYVRKERKRHKTDPSAAGRKKKQRHGEAVVPPRSLFDRATPGLLKIRREGKEQKKNILLKQQVPFAKPLPTFAKPTAEPGQDNPEWLISEDWALLQAVKQLLELPLNLTIVSPAHTPNWDLVSDVVNSCSRIYRSSKQCRNRYENVIIPREEGKSKNNRPLRTSQIYAQDENATHTQLYTSHFDLMKMTAGKRSPPIKPLLGMNPFQKNPKHASVLAESGINYDKPLPPIQVASLRAERIAKEKKALADQQKAQQPAVAQPPPPQPQPPPPPQQPPPPLPQPQAAGSQPPAGPPAVQPQPQPQPQTQPQPVQAPAKAQPAITTGGSAAVLAGTIKTSVTGTSMPTGAVSGNVIVNTIAGVPAATFQSINKRLASPVAPGALTTPGGSAPAQVVHTQPPPRAVGSPATATPDLVSMATTQGVRAVTSVTASAVVTTNLTPVQTPARSLVPQVSQATGVQLPGKTITPAHFQLLRQQQQQQQQQQQQQQQQQQQQQQQQQQQQQTTTTSQVQVPQIQGQAQSPAQIKAVGKLTPEHLIKMQKQKLQMPPQPPPPQAQSAPPQPTAQVQVQTSQPPQQQSPQLTTVTAPRPGALLTGTTVANLQVARLTRVPTSQLQAQGQMQTQAPQPAQVALAKPPVVSVPAAVVSSPGVTTLPMNVAGISVAIGQPQKAAGQTVVAQPVHMQQLLKLKQQAVQQQKAIQPQAAQGPAAVQQKITAQQITTPGAQQKVAYAAQPALKTQFLTTPISQAQKLAGAQQVQTQIQVAKLPQVVQQQTPVASIQQVASASQQASPQTVALTQATAAGQQVQMIPAVTATAQVVQQKLIQQQVVTTASAPLQTPGAPNPAQVPASSDSPSQQPKLQMRVPAVRLKTPTKPPCQ", "notes": "137 residues (SANT and HD domains) are resolved; also called EP400Cter; C-terminal segment of EP400; source: new cell line expressing the tagged truncation"}}, "molecular_target": "T1, transformation/transcription domain-associated protein (TRRAP) (human (endogenous in K562), UniProt Q9Y4A5 1-3859)", "T1 construct": "transformation/transcription domain-associated protein (TRRAP), human; also called TRRAP module; source: endogenous, K562 extract; co-purified with tagged EP400 constructs", "T1 sequence (Q9Y4A5 whole entry, the tested form may be a part)": "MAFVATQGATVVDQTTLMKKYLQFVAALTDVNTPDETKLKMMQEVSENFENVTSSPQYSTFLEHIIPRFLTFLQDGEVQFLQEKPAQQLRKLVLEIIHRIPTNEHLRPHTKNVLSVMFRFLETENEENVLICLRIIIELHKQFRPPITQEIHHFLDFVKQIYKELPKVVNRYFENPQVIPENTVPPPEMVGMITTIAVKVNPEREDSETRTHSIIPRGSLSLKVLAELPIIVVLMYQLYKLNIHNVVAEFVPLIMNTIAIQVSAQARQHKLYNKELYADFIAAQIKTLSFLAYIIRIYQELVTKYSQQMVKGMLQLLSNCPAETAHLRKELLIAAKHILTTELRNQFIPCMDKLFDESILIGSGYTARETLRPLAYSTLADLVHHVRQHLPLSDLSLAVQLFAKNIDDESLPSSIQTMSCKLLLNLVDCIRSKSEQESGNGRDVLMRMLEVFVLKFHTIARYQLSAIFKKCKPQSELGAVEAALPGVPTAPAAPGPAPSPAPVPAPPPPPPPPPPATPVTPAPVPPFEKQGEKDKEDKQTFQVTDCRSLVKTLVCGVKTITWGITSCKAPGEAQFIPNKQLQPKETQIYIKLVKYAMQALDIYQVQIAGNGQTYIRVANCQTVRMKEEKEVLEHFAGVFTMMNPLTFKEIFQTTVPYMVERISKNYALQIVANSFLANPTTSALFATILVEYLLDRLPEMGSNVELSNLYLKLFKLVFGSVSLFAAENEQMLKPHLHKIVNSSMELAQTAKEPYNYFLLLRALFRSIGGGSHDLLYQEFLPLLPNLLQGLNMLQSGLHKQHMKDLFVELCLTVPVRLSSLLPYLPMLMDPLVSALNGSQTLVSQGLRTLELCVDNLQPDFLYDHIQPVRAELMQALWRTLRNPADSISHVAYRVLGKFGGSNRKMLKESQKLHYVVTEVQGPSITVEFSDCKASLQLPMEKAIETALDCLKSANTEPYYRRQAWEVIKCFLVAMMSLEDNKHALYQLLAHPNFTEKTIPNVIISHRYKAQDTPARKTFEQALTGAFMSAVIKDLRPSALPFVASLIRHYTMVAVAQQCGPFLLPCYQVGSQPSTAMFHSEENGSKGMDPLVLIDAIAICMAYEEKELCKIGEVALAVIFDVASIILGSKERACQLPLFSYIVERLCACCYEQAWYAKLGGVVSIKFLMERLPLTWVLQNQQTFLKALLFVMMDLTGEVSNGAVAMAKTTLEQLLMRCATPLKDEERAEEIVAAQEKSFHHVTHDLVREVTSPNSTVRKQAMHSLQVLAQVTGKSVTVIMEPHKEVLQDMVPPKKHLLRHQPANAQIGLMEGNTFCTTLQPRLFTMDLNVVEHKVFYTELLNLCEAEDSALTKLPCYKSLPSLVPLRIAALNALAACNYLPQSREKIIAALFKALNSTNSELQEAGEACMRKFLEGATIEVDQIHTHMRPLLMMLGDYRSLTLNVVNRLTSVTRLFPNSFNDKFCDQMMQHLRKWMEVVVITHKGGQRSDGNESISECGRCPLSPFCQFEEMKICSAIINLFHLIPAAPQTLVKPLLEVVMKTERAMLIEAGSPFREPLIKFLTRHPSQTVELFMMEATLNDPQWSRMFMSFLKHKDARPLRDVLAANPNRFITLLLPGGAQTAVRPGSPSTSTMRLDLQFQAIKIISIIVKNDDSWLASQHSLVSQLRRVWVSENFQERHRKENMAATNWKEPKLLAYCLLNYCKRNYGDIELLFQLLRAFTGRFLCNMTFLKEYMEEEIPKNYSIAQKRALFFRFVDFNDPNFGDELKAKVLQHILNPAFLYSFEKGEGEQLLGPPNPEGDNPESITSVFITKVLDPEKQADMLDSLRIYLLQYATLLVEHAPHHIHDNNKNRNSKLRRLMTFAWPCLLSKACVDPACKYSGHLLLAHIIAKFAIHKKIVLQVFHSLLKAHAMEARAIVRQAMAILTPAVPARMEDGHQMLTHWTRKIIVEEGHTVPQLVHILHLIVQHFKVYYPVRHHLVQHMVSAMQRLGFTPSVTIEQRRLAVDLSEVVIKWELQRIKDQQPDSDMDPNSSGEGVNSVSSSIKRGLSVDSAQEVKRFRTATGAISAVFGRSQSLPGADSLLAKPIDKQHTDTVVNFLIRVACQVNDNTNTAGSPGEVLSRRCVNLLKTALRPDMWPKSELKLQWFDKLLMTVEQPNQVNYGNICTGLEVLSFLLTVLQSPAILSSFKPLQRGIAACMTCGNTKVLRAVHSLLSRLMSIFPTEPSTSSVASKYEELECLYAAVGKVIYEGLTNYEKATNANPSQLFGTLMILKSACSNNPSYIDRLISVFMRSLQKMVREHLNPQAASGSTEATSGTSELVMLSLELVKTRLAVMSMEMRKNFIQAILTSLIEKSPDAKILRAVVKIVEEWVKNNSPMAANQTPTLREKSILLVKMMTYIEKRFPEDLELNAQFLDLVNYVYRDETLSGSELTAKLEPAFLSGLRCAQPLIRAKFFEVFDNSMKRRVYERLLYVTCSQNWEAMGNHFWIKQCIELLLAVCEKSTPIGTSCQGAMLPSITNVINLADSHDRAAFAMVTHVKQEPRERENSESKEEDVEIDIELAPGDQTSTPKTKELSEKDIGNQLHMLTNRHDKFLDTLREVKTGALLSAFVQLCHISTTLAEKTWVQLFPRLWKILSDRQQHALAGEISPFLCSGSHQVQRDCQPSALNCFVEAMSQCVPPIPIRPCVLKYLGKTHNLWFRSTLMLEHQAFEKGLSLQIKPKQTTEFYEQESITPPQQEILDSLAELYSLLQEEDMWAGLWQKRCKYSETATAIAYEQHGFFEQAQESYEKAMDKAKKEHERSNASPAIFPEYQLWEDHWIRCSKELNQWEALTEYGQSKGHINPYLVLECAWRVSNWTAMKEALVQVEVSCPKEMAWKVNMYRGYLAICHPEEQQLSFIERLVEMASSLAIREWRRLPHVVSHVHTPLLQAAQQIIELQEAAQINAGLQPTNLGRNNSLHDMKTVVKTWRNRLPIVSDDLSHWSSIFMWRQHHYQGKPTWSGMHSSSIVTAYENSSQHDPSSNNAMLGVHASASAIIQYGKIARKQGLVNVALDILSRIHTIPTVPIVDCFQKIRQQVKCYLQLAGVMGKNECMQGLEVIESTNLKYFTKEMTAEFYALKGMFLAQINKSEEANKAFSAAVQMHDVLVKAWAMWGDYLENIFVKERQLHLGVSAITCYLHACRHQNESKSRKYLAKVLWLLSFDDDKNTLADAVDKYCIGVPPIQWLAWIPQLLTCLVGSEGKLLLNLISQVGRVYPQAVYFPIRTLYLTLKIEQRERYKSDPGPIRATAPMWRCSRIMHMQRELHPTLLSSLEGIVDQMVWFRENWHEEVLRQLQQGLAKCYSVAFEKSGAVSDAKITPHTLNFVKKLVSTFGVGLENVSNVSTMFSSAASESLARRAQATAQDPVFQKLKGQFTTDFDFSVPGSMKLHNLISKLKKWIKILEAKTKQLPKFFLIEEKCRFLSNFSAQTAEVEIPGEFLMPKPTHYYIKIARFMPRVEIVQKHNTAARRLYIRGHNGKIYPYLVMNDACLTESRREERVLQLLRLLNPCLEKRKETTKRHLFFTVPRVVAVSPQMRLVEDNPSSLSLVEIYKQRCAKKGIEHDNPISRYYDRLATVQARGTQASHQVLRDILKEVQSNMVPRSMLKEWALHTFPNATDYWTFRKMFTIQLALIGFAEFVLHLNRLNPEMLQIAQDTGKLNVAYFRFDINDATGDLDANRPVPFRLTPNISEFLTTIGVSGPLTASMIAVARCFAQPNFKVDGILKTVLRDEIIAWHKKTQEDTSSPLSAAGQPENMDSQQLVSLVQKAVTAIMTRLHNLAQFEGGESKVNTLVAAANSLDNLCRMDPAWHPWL", "test": "cryo-EM structure; TRRAP-EP400Cter purified by the tagged EP400 truncation 2188-3159, glutaraldehyde cross-linked; 3.4 Å", "conditions": "both partners purified", "data": [{"binder": "B1", "values": [{"measurement": "binding result", "result": "binds"}]}]}
